Laboratory results reported in the DeepSol protein solubility set.

Assay: soluble on expression in E. coli; label from the status in PepcDB or PDB records

Soluble on expression in E. coli, not soluble:
MGSDKIHHHHHHMARLRVYELARKLNMSPKELLQELEELGVNVKSHMSYVDEEMANIIIDLLEEDNRKAKQPSKPKKEKGEEEVEKEVVEKKKKKKITLKPDELKLDIIAEKIGVPQNKIIQDMFVKRGIALRPGQILKLEEVEQILKEYKIEIEIEEEQQTSVEEVDEFELLEKRYQELYEKEKDKLVPRPPVVTVMGHVDHGKTTLLDRIRSTRVAEREEGGITQSIGAYQVEVNGKKITFIDTPGHELFTEMRARGAQATDIVVLVVAADDGVMPQTIEAYNHAKAANVPIIVAINKIDKPNANVEKTKQELVEKLGLIPEEWGGDTIVVPISARTGQGVDELLEMILLVAEMNEIKCYPEGPARAVIIESKLDKKMGPVASAIVKDGVLKVGDAVVASNTYGRVRNLFDDNMRPIREAYPSQPVMILGFEDVPDVHSNVYVVESAEKAKEIVEKRLQRLEAQKQSRKHINLEELMKMMQEKEKKVLNLILKADTYGSVAALKNAINKLQSKEIELNIVHAGVGEISTSDVMLAAAVDGVILGFRVKVNNQARRLAEQEGVDVRTYSIIYKLVEDLKLALEGMLEPEEVEEVIGHGEIRKVFKISKVGKVAGVQMLDGKADRNGFVRIYRNGQLVFGGKIESLKHYKEDVSVVEAPQECGIKFAGFDDIHEGDELEFYVIRKVKRKPTFVEEQADQEQK
MGSDKIHHHHHHMASFVDKLHPLVLNIGLAIHNADWNWKNVNSPFTRLYYVTEGTAQVLISGKTQILKANHMYFIPAFTKHSYICNSYFSHYYLHIYEEHQSDSNLLDNWDFPIEIPAVEIDLALFQRLCTINPHMTLQKSDPTSYDNNYTLMQNLLKNKQRTLSDKIESRGIVYQLLARFLKRAQVKMELKDNRIEEAIHYIRKHINETIDLRVLAENSCLSKDHFIRLFKKETGDTPLKYINRKKIEKAQLILITDDMSIKNVALNLAFEDYSYFNRLFKKITGITPQEYRTSYHS
MGSDKIHHHHHHMASIRELHEQLVKKERSAVEITQETLDHIQELEPKLHSFLHITAQQALEQARAVDAKIAAGEEIGLLAGIPIGVKDNMCTKGIPTTCASRILENFVPPYESTVTQKLLDAGAVVVGKTNLDEFAMGSSTENSAYQVTANPWDLSRVPGGSSGGSAAAVAAEECVVALGSDTGGSIRQPASFCGVVGLKPTYGLVSRYGLVAYASSLDQIGPFGKSVEDTAILLKAIAGYDHQDSTSLKVEIPDYVASLKPDLKARSKLRIGIIKETFGEGLDSVVEQAVTKAIEQLQRLGAEVHVISCPNFRYGVPSYYIIAPSEASANLARYDGVKYGWRAPEGDNLLSMYKRTRATGFGAEVKRRIMIGTYALSAGYYDAYYLKAQKVRTLIKQDFENAFKNVDVLVSPTAPTTAFKAGEKTADPISMYLNDLMTIPVNLAGLPGLSVPCGFDEQGLPIGLQLIGKVLREDQLLQIAYAYEQSTSWHLSQPKIS
MGSDKIHHHHHHMATLETLDLSAGFAADLVQATEADAVTGYRRFHLGAFAFQRDEYFVKISWPAKGSTRTHAIPADAFLRAMMRDVAWGFFYGWVNFDHVFGTRNHYGKVDVYAGTFNGILKEAGVDYTETFETPTIMATFKAMLHDWTNEGFDPFAAPEETGTAFGRKHGENGAAIERTRIATRRMPGLEGDSPLRDELPVNRAFRDVGQDEPEVHVKPGFEGELHAFNLFKYLSRSDVTWNPSVTSVCGRSLFCPTTEEFILPVFHGNDRVEWFLQLSDEIVWDIGDKNTGAPRARITMRAGDICAMPADIRHQGYSTKRSMLLVWENATPDLPQRYESGELAPYPIAF
MGSDKIHHHHHHMATPADKLAESLAVLKTLRDQGRKALRSEDMGRTHRERLMRNGFIKEVMKGWYIPSRPDEPAGESTSWYASFWVFCASYLESRFGDEWCVSPEQSIHLHTGNWSVPKQLLIRSPKGGNKPTGLLHGTSILDVRLELPPASDTEIKEGMRIYNLPAALVGCSQTQFSAHPTEMRTALTMMQDASELLGRLLAGGHSKIAGWLAGACRSIGRKQIADDILGAMRAAGYTVNENNPFKDQAQIIFSPRETSPYVNRMRMNWASMREDVLHSFPAAPGLPADSAKYLKQVEAVYVNDAYNSLSIEGYKVSAALIEKVRSGNWNPDSNKDDQDHRNALAARGYWQAFQKVRESIGKVLSQENAGTVAESDHAQWYRELFGPSVTAGILKAADLAGYRNSPVYIRRSMHTPPGKEAVRELMPVLFELLQQENEAAVRVVLGHFMFVYIHPYIDGNGRIGRFLMNLMSASGGYSWIVIPLEQRNDYMAALESASVEGDIKPFSTLLANLVSTG
MGSDKIHHHHHHMATVISMINLKGGVGKTTLTVAMAEFMAAEYGLKVLVVDLDPQTNATVALINELEWRKRNIRGQTLLNIFLDHLSKYQVFSLEEAIVHNVSNVNGGIEGLDLLPSSIDLIEVHDEFLQAIPSLPINPLHLLDDVLRAALSAYDIVLIDCPPDLGLICQNGLMISDYYIIPTIPDILSTYGIPQIINRIGRLQRENSISIQPLGLVISKYRQQSEIHKNQANLLKIHAPKAGYRQVFNTFIPEGNLAAMVMDYTLHFNSLREKYNYSKYYQIYKALTEEVLSCVQ
MGSDKIHHHHHHMAVKMIKVHGSGNDFYLLDQTQFQAPLSDADLKQLAINICKRDGAGLYDGADGVLVVDKSEHPQVLGRMRVINADGTEASMCGNGLRTVARYLGTQNSQEDFRVQTMYADLKVQAVADFAAHVPAYSVEISPVTFDAQTLGMHANNDATTIINEKIPALSADLKFSAVAVPNPHLIAFVDHDTLVGPELGRIGEWMNDGKNQIFPDGVNVSFVEVLGPNSIFVRTFERGVGFTNACGTAMSASSLMYVLLHQESTDFNQEIHVTNPGGMVKTVVHQGADEEYWMELIGNATFVRIVTLPLEDALQGDYSPVTATETGEQVAYEDFVANLAKA
MGSDKIHHHHHHMAVSAKYDEFNHWWATEGDWVEEPNYRRNGMSGVQCVERNGKKLYVKRMTHHLFHSVRYPFGRPTIVREVAVIKELERAGVIVPKIVFGEAVKIEGEWRALLVTEDMAGFISIADWYAQHAVSPYSDEVRQAMLKAVALAFKKMHSINRQHGCCYVRHIYVKTEGNAEAGFLDLEKSRRRLRRDKAINHDFRQLEKYLEPIPKADWEQVKAYYYAM
MGSDKIHHHHHHMAYFMLLMTTPIQATIQQSMALAKAHYENFPVASVLLPKDLRAPVGLVYAFARQADDFADEGELSPEERLALLDGFRSQLDQIKHGATPDTPLFQALQAMIQERDLPLEPFYDLLSAFSQDVVKARYANFGEVIDYCRRSANPVGRLMLHLYKQATPRNVALSDAICTSLQLINFLQDVDVDYRKNRIYLPLDELQKYNITEQQIAGQHSGGTWSLFMEFQVNRTRKLLQSGAPLGLALPGRIGLEMRMIIAGGERILKKLHHVRGDVFNQRPTLKPTDWAYMLYRAVRKK
MGSDKIHHHHHHMAYRSAPLYEDVIWRTHLQPQDPTLAQAVRATIAKHREHLLEFIRLDEPAPLNAMTLAQWSSPNVLSSLLAVYSDHIYRNQPMMIRENKPLISLWAQWYIGLMVPPLMLALLTQEKALDVSPEHFHAEFHETGRVACFWVDVCEDKNATPHSPQHRMETLISQALVPVVQALEATGEINGKLIWSNTGYLINWYLTEMKQLLGEATVESLRHALFFEKTLTNGEDNPLWRTVVLRDGLLVRRTCCQRYRLPDVQQCGDCTLK
MGSDKIHHHHHHMCQGLMTHSRCVKSNTMFSIRIKAGRKAYEQIRDGGFSCDRISAFFAPAAGPRWLVATGFDLTLLKAGLLGRKKPVQLIGSSSGAWRFAAWVQPEAEKSYLNLMEAYIRIPYHKDDRAGIVLQNLINVVNSYIEDDALPFALAHKHYRLAVLTARVRHLVASESSWIQSSGLFLCFLMNALSRSTLDHFTERVVFYNGPNPPGFCLKSPFRGRFIQLNRTNFKHAILASGAIPLFVAGIRDIYGAPRGVYRDGGLVDYHQTYDFAESDDDMTLFFHHQERIIPGWFDKRLKHRRTPDVLLDHTLMVFPTEDFVSTLPLGKLPDREDFRSFMDDPATRIRNWQEAVRRSAPLGEQFFELVESGKLRSMVERI
MGSDKIHHHHHHMCSVSGVLILNPKNFEKVELKLASILKKAEDRGRDSFGIVVIQKDGTVKVRKSIGKPSEKEELLYGILDEDSRVVIANNRAEPTTEYVRQKTEDDIQPFIGDRYIVTHNGIIANDLELEKKYELKRKTKIDSAILPLLLDKTWDGNLEALKGILEQIKGSFALVIGDKKNPDRIFLAQNFKPLYMAYDHSLESLFFTSLDEYFDAKPFDPVNITKLEPYSVVMVTSNKLITTLPIMEKRKKYRVLVVASGGLDSTVAATKLLREGHEVTLIHFNYHHKAEEKEREAVRKIAEYLQIPLLEINTDLFKIIGHATLIKGGGEIVKDRKGEEGAEFAHEWVPARNLIFFSVSLAIAEAYGYDAIASGINLEEAGAYPDNEMEFIRMLNKLSPYATGPNKRIEILMPVGNLVKHEIVKLGYEIGAPLHLTWSCYEGGQKHCGKCGPCYMRKMAFRINGLKDPVEYDEE
MGSDKIHHHHHHMDAVQLKSFVAVAHEGNLTQAAKRLFLSQPAVSAQIKALEEYVGTPLFRRTGKGMVLTRAGEILLPEAESLLQYKHKLEHFAKTLAGDYSEETSLGIIHPIDSAKLVALTDNIGQTAPKTRLHIQYGMSGEILSRIQHKTLHGGFILGNAAQRGIRSVFLQNLTYALICPQSQYPHLTRSLPQSLQECVWIEMSGVSGSRKHLHQFWRSNRLSPKKQILCDYPQTIIDLVAGGIGVAMVPGNKAEAAAKEGAGVAIIESCRHSMPLNFIYAEEYEDNPHVSLLLECIEKVWGVQAVQPPVVSDN
MGSDKIHHHHHHMDDLMGYVIGETSNTELNFLAKHMPEIGSYVSINYCDLEILGMVESVNQGCKIFEDVYNVKDFEKLKDFENNDSYYTIGKIKILGDVKNMQIPRIPPKPGTEVYDASEKILGEIFSKGTIEIGNLISADSKVKLDVNKLCSRHLAILAITGMGKSNTVSVLLEELNNIHATVLVFDMHREYVEIEAKNSTIRRNIIRPKINVYNMSYDALMSLAGVDPQATVQRAMGRRAMKKIKESKKEVDFNTVDEYINSIINELNYYMGMDEFKSKVDSILTLIMRFEDLMTFKDKITAINYNPIQDIKENYVNIVDISELDESSTDLIISYFTGEILKDRKKVLWDTKVAKPIFIIYEEAHLIVPQNRPTKSKIPISKIAREGRKFGVGICLVSQRPKTLDQESLSQCNNFIISKLIEPSDQKHVQHASENLSEDLLNQLPGLNVGEAVIIGPCLKIPAMVKIKRFEGEYGGEDVKFDELWTTEKEKNIPEFIESNELFNDDL
MGSDKIHHHHHHMDEETRRAVATADEALPTSDALPDAIDTGRVVFGFDGYLDRVREVVADRIDPESHERLATLESFGDRIDRSVAADSSLSFEWLQQGSRTGGHTSHLARAFGGWSFDPVMVGMYGDPVHDAFETEFGEYELHSLGEPGVTDAVEFDDGKLMLTEIGDTMSLDWAELDTAFGHDRLAEKLDGASLLGTGYWSETPDLPTVFDGLRTLWDGIDDPPETVLVDPGDVRKLDADRLRAGREAIGRLDEVTDVVVTSNRAETGVLADAYAGDAERSFADDAEAVFEALEPTWFVGHGVEQSVVVTAAGTDSVAVPSVSDPELTTSSGDHFNAGLGLARIADLSPAAAVVVGNAVAGYFVRTADQPSLADVRAFVDEYLEKF
